# Laboratory results reported in PMC7712654 (2020).
# B1: α-CT coiled-coil domain fused with HIS tag (α-CT-His), fluorescently labeled (domain or fragment)
# chain: INMKKREAVFSDSRKLQGEVDKLKEQILKAKETSTEAEPSSEVLNEMIEKLKSEIDDEYTEAAIAVGLEERLTAMREEFSKASSEEHLMHPVLIEKIEKLKEEFNTRLTDAPNYESLKSKLNMLRDFSRAKAASEATSLKKEINKRFQEAVDRPEIREKVEAIKAEVASSGASSFDELPDALKEKVLKTKGEVEAEMAGVLKSMGLELDAVKQNQKDTAEQIYAANENLQEKLEKLNQEITSKIEEVVRTPEIKSMVELLKVETAKASKTPGVTEAYQKIEALEQQIKQKIAEALNTSGLQEKQDELEKELAAARELAAEESDGSVKEDDDDDEDSSESGKSEMVNPSFA
# modifications: fluorescently labeled using His-tag labeling kit (NanoTemper, MO-L008)
# B2: coiled-coil domain of CTI1 fused with HIS tag (domain or fragment)
# chain: PQISKAIAGADRKDLMRKLPKFIYDEEKALEKTRKVLAEKIAQLNSAIDDVSSQLKSEDTPNGAALSTDEIEATA
# Legend:
# [1] = target: coiled-coil domain of CTI3 fused with HIS tag (Arabidopsis thaliana); test: MST
# [2] = target: B1; test: MST
Kd [1] [µM],Kd [2] [µM],Binder
0.114,–,B1
–,0.0148,B2
